Measurements taken from patent US20070265199A1 (UNIVERSITY OF ROCHESTER, published 2007).

Experiments:
[1] = biological target: T1, factor IXaβ (UniProt P00740 47-191; P00740 227-461); assay: factor Xa generation assay on non-activated platelets, factor IXa titrated with factor VIIIa
T1 construct: Bought reagent
Experimental: (§1) Factor VIII cofactor activity, factor IXa-factor VIIIa affinity, and kinetic parameters were determined using factor Xa generation assays. Reactions were performed in the presence of either phospholipid vesicles, non-activated platelets, or platelets activated by SFLLRN-amide (50 μM).

[2] = biological target: T1, factor IXaβ; assay: factor Xa generation assay on phospholipid vesicles, factor IXa titrated with factor VIIIa
Experimental: as §1

[3] = biological target: T1, factor IXaβ; assay: factor Xa generation assay on activated platelets (SFLLRN-amide), factor IXa titrated with factor VIIIa
Experimental: as §1

T1 sequence (P00740 47-191 limits assumed, form in doubt, chain 1 of 2): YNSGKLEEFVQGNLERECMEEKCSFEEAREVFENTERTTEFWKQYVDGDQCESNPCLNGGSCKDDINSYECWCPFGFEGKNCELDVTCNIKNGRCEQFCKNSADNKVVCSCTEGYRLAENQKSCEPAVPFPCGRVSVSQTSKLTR
T1 sequence (P00740 227-461 limits assumed, form in doubt, chain 2 of 2): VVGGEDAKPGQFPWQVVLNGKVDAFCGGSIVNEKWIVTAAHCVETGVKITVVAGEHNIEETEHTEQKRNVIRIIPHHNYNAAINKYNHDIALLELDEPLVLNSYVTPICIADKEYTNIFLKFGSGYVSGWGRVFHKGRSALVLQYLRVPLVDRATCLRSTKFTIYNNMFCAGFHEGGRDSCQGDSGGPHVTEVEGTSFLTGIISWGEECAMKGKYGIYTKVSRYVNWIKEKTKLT

B1: factor VIIIa E113A (thrombin-activated B-domainless factor VIII bearing Glu113Ala) (other)
chain 1: ATRRYYLGAVELSWDYMQSDLGELPVDARFPPRVPKSFPFNTSVVYKKTLFVEFTVHLFNIAKPRPPWMGLLGPTIQAEVYDTVVITLKNMASHPVSLHAVGVSYWKASEGAAYDDQTSQREKEDDKVFPGGSHTYVWQVLKENGPMASDPLCLTYSYLSHVDLVKDLNSGLIGALLVCREGSLAKEKTQTLHKFILLFAVFDEGKSWHSETKNSLMQDRDAASARAWPKMHTVNGYVNRSLPGLIGCHRKSVYWHVIGMGTTPEVHSIFLEGHTFLVRNHRQASLEISPITFLTAQTLLMDLGQFLLFCHISSHQHDGMEAYVKVDSCPEEPQLRMKNNEEAEDYDDDLTDSEMDVVRFDDDNSPSFIQIR
chain 2: SVAKKHPKTWVHYIAAEEEDWDYAPLVLAPDDRSYKSQYLNNGPQRIGRKYKKVRFMAYTDETFKTREAIQHESGILGPLLYGEVGDTLLIIFKNQASRPYNIYPHGITDVRPLYSRRLPKGVKHLKDFPILPGEIFKYKWTVTVEDGPTKSDPRCLTRYYSSFVNMERDLASGLIGPLLICYKESVDQRGNQIMSDKRNVILFSVFDENRSWYLTENIQRFLPNPAGVQLEDPEFQASNIMHSINGYVFDSLQLSVCLHEVAYWYILSIGAQTDFLSVFFSGYTFKHKMVYEDTLTLFPFSGETVFMSMENPGLWILGCHNSDFRNRGMTALLKVSSCDKNTGDYYEDSYEDISAYLLSKNNAIEPR
chain 3: SFQKKTRHYFIAAVERLWDYGMSSSPHVLRNRAQSGSVPQFKKVVFQEFTDGSFTQPLYRGELNEHLGLLGPYIRAEVEDNIMVTFRNQASRPYSFYSSLISYEEDQRQGAEPRKNFVKPNETKTYFWKVQHHMAPTKDEFDCKAWAYFSDVDLEKDVHSGLIGPLLVCHTNTLNPAHGRQVTVQEFALFFTIFDETKSWYFTENMERNCRAPCNIQMEDPTFKENYRFHAINGYIMDTLPGLVMAQDQRIRWYLLSMGSNENIHSIHFSGHVFTVRKKEEYKMALYNLYPGVFETVEMLPSKAGIWRVECLIGEHLHAGMSTLFLVYSNKCQTPLGMASGHIRDFQITASGQYGQWAPKLARLHYSGSINAWSTKEPFSWIKVDLLAPMIIHGIKTQGARQKFSSLYISQFIIMYSLDGKKWQTYRGNSTGTLMVFFGNVDSSGIKHNIFNPPIIARYIRLHPTHYSIRSTLRMELMGCDLNSCSMPLGMESKAISDAQITASSYFTNMFATWSPSKARLHLQGRSNAWRPQVNNPKEWLQVDFQKTMKVTGVTTQGVKSLLTSMYVKEFLISSSQDGHQWTLFFQNGKVKVFQGNQDSFTPVVNSLDPPLLTRYLRIHPQSWVHQIALRMEVLGCEAQDLY
notes: also called factor VIII E113A; Factor VIII:E113A
Kd [1]: 5.7 nM
Kd [2]: 5 nM
Kd [3]: 6 nM
